Source: patent publication US20210032299A1 (Eli Lilly, published 2021)
Starred links: 1 amine or outer side, 2 acyl side, 3 side chain; linkers in the order of their positions; H or OH if unused. Non-standard residues stand in square brackets, D forms with d. Groups on a side chain read outwards from the residue. No end group written: not given here. *: point of attachment. C20 diacid = O=C(O)CCCCCCCCCCCCCCCCCCC(=O)*; γGlu = O=C(O)[C@H](CCC(=O)[*:2])N[*:1]; 4Pal = N[C@@H](Cc1ccncc1)C(=O)O; αMeL = CC(C)C[C@](C)(N)C(=O)O; Orn = NCCC[C@H](N)C(=O)O; AEEA = NCCOCCOCC(=O)O; Aib = CC(C)(N)C(=O)O

T1: human glucose-dependent insulinotropic peptide receptor (human, UniProt P48546 22-466)
T1 sequence (looked up): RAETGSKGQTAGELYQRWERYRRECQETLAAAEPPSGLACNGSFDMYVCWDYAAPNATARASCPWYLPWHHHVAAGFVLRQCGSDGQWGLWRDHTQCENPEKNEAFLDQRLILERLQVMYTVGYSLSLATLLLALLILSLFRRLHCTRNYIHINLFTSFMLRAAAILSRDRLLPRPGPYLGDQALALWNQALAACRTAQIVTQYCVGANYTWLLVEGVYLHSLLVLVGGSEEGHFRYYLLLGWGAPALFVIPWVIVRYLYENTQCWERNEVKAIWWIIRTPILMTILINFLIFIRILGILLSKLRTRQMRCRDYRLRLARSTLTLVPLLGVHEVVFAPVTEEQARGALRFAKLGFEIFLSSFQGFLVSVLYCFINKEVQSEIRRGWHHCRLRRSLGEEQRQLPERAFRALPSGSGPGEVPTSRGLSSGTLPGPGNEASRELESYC


What was measured:
Assay in all cases: cell-based or functional assay
[1] = target: human glucagon receptor (human, UniProt P47871 26-477)
[2] = target: human GLP-1 receptor (human, UniProt P43220 24-463)
[3] = target: T1, human glucose-dependent insulinotropic …

Chain of human glucagon receptor (P47871 26-477): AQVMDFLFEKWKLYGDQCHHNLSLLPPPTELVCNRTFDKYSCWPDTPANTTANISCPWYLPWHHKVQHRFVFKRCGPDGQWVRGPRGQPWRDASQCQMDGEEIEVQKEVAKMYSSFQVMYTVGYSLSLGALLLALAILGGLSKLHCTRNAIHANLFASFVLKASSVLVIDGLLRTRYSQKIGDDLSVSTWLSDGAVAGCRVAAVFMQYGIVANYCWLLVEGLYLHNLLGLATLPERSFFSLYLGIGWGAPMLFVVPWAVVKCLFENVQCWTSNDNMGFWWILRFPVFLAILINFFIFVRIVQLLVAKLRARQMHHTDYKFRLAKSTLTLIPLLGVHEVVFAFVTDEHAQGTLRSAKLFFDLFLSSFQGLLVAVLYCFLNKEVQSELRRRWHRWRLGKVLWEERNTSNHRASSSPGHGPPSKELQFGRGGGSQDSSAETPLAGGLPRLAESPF

Row | Binder | hGcgR cAMP Rel EC50 [1] [µM] | hGLP1R cAMP Rel EC50 [2] [µM] | hGIPR cAMP Rel EC50 [3] [nM]
1 | Y[Aib]EGTFISDYSI[αMeL]LD[Orn]K([AEEA-AEEA-γGlu-C20 diacid])HQ[Aib]DFVE[4Pal]LLEGGPSSGAPPPS-NH2 (N-terminus assumed; SMILES CC[C@H](C)[C@H](NC(=O)[C@H](Cc1ccccc1)NC(=O)[C@@H](NC(=O)CNC(=O)[C@H](CCC(=O)O)NC(=O)C(C)(C)NC(=O)[C@@H](N)Cc1ccc(O)cc1)[C@@H](C)O)C(=O)N[C@@H](CO)C(=O)N[C@@H](CC(=O)O)C(=O)N[C@@H](Cc1ccc(O)cc1)C(=O)N[C@@H](CO)C(=O)N[C@H](C(=O)N[C@@](C)(CC(C)C)C(=O)N[C@@H](CC(C)C)C(=O)N[C@@H](CC(=O)O)C(=O)N[C@@H](CCCN)C(=O)N[C@@H](CCCCNC(=O)COCCOCCNC(=O)COCCOCCNC(=O)CC[C@H](NC(=O)CCCCCCCCCCCCCCCCCCC(=O)O)C(=O)O)C(=O)N[C@@H](Cc1c[nH]cn1)C(=O)N[C@@H](CCC(N)=O)C(=O)NC(C)(C)C(=O)N[C@@H](CC(=O)O)C(=O)N[C@@H](Cc1ccccc1)C(=O)N[C@H](C(=O)N[C@@H](CCC(=O)O)C(=O)N[C@@H](Cc1ccncc1)C(=O)N[C@@H](CC(C)C)C(=O)N[C@@H](CC(C)C)C(=O)N[C@@H](CCC(=O)O)C(=O)NCC(=O)NCC(=O)N1CCC[C@H]1C(=O)N[C@@H](CO)C(=O)N[C@@H](CO)C(=O)NCC(=O)N[C@@H](C)C(=O)N1CCC[C@H]1C(=O)N1CCC[C@H]1C(=O)N1CCC[C@H]1C(=O)N[C@@H](CO)C(N)=O)C(C)C)[C@@H](C)CC) [Example 82] | 3.79 | > 5 | 0.0391
2 | Y[Aib]EGTFISDYSI[αMeL]LDEK([AEEA-AEEA-γGlu-C20 diacid])HQ[Aib]DFVE[4Pal]LLATGPSSGAPPPS-NH2 (N-terminus assumed; SMILES CC[C@H](C)[C@H](NC(=O)[C@H](Cc1ccccc1)NC(=O)[C@@H](NC(=O)CNC(=O)[C@H](CCC(=O)O)NC(=O)C(C)(C)NC(=O)[C@@H](N)Cc1ccc(O)cc1)[C@@H](C)O)C(=O)N[C@@H](CO)C(=O)N[C@@H](CC(=O)O)C(=O)N[C@@H](Cc1ccc(O)cc1)C(=O)N[C@@H](CO)C(=O)N[C@H](C(=O)N[C@@](C)(CC(C)C)C(=O)N[C@@H](CC(C)C)C(=O)N[C@@H](CC(=O)O)C(=O)N[C@@H](CCC(=O)O)C(=O)N[C@@H](CCCCNC(=O)COCCOCCNC(=O)COCCOCCNC(=O)CC[C@H](NC(=O)CCCCCCCCCCCCCCCCCCC(=O)O)C(=O)O)C(=O)N[C@@H](Cc1c[nH]cn1)C(=O)N[C@@H](CCC(N)=O)C(=O)NC(C)(C)C(=O)N[C@@H](CC(=O)O)C(=O)N[C@@H](Cc1ccccc1)C(=O)N[C@H](C(=O)N[C@@H](CCC(=O)O)C(=O)N[C@@H](Cc1ccncc1)C(=O)N[C@@H](CC(C)C)C(=O)N[C@@H](CC(C)C)C(=O)N[C@@H](C)C(=O)N[C@H](C(=O)NCC(=O)N1CCC[C@H]1C(=O)N[C@@H](CO)C(=O)N[C@@H](CO)C(=O)NCC(=O)N[C@@H](C)C(=O)N1CCC[C@H]1C(=O)N1CCC[C@H]1C(=O)N1CCC[C@H]1C(=O)N[C@@H](CO)C(N)=O)[C@@H](C)O)C(C)C)[C@@H](C)CC) [Example 83] | > 5 | > 5 | 0.0432
